The record followed here is patent US20240301046A1 (MABWELL THERAPEUTICS, published 2024).

Like-named read-outs stand apart in the source and are kept apart here.

The target of assay [1] is T1, HiLyte488 labelled Aβ1-42 protofibrils (UniProt P05067 672-713, HiLyte488 fluorophore on part of the peptides (labelled and unlabelled Aβ1-42 monomers mixed 1:5)). Briefly: cell-based or functional assay.
Assay [2] addresses T1, HiLyte488 labelled Aβ1-42 protofibrils. In words: cell-based or functional assay. This is another data set of the same source.
Assay [3] has as its target T2, biotin-labelled Aβ1-40 monomer (AnaSpec, AS-61483-01) (UniProt P05067 672-711, biotin label, position not stated).
T2 construct: domain: Aβ1-40; also called biotin-conjugated Aβ40 monomer; biotin-Aβ monomer
In words: capture ELISA, coated antibody, biotin-Aβ1-40 monomer. As for the experimental part:
The plate was incubated for 1 h at RT and washed 3 times with PBST. The plate was then incubated with HRP-conjugated streptavidin (Thermo Fisher Scientific, SNN2004) at 1:5000 diluted in 1% BSA for 20 min at RT and washed 3 times. TMB Stabilized Chromogen substrate solution (Life Technologies, SB02) was added to the plate, and the reaction was stopped by adding 1M sulfuric acid. The absorbance at 450 nm was measured in a plate reader.
(§1) A 96-well plate was coated with 5 μg/mL of antibodies overnight at RT. The plate was then treated with diluents of biotin-labelled Aβ₁₋₄₀ monomers (AnaSpec, AS-61483-01, 4-fold serial dilutions with concentrations in the range of 0-1000 nM) for 1 h at RT. The binding of biotin-labelled Aβ₁₋₄₀ monomers with immobilized antibody was detected by HRP-conjugated streptavidin and TMB, as described in Example 2.

The target of assay [4] is T3, pyroglutamate-modified Aβ (Aβp3-42) (AnaSpec, AS-29907-01) (UniProt P05067 674-713, pyroglutamate at Aβ position 3 (the N-terminus)).
T3 construct: domain: Aβp3-42; also called Abeta p3-42
Briefly: direct ELISA, coated Aβp3-42. How it is done: (§2) Direct ELISA was used to test each antibody's affinity for Aβ₁₋₄₂ and pyroglutamate-modified Aβ (Aβₚ₃₋₄₂). Plates were coated with 0.5 μM of Aβ₁₋₄₂ (rPeptide, A-1167-2) or Aβₚ₃₋₄₂ (AnaSpec, AS-29907-01) for 2 h at 4° C. Diluents of antibodies (3-fold serial dilutions with concentrations in the range of 0-100 nM) were added to the plate for 1 h at RT. Binding of antibody to immobilized Aβ on each plate was detected by HRP-labeled secondary antibody and TMB substrate, as described in Example 2.

For assay [5], the target named is T2, biotin-labelled Aβ1-40 monomer …. Briefly: capture ELISA, coated antibody, biotin-Aβ1-40 monomer. How it is done:
as §1
This is another data set of the same source. For orientation: An ELISA detects its analyte on a solid surface through an enzyme-linked reagent.

Assay [6] addresses T4, Aβ1-42 (rPeptide, A-1167-2) (UniProt P05067 672-713).
T4 construct: domain: Aβ1-42; also called Abeta 1-42
Briefly: direct ELISA, coated Aβ1-42.

Assay [7] deals with T3, pyroglutamate-modified Aβ (Aβp3-42) …. In words: direct ELISA, coated Aβp3-42. How it is done: After 3 washes with 1× Phosphate-Buffered Saline, 0.1% Tween 20 (PBST), each plate was blocked with 1% BSA in PBS for 1 h at room temperature (RT). Diluents of Aβ antibodies (3-fold serial dilutions with concentrations in the range of 0-100 nM) were added to plates. The plate was incubated for 1 h at RT and washed 3 times. The plate was then incubated with HRP conjugated goat anti-mouse IgG (Thermo Fisher Scientific, G-21040; thermofisher.com) 1:5000 diluted in 1% BSA for 1 h at RT and washed 3 times. TMB (3,3′,5,5;-tetramethylbenzidine) Stabilized Chromogen substrate solution (Life Technologies (Thermo Fisher Scientific) SB02) was added to the plate, and the reaction was stopped by adding 1M sulfuric acid. The absorbance at 450 nm was measured in a plate reader.
as §2
This is another data set of the same source.

In assay [8] the target is T4, Aβ1-42 (rPeptide, A-1167-2). In words: direct ELISA, coated Aβ1-42. This is another data set of the same source.
Assay [9] has the same target. In words: direct ELISA, coated Aβ1-42. How it is done: as §2
The source holds these as a separate data set.

Assay [10] shares this target. In words: direct ELISA, coated Aβ1-42. The source holds these as a separate data set.
The target in assay [11] is T1, HiLyte488 labelled Aβ1-42 protofibrils. Briefly: cell-based or functional assay. This is another data set of the same source.
The target of assay [12] is T3, pyroglutamate-modified Aβ (Aβp3-42) …. Briefly: direct ELISA, coated Aβp3-42. This is another data set of the same source.
Assay [13] concerns the target T2, biotin-labelled Aβ1-40 monomer …. In words: capture ELISA, coated antibody, biotin-Aβ1-40 monomer. The source holds these as a separate data set.
The target of assay [14] is T5, Aβ1-42 protofibril (UniProt P05067 672-713).
T5 construct: domain: Aβ1-42; soluble multimer of Aβ1-42; also called Aβ protofibril; Aβ protofibrils
Briefly: ratio of competitive ELISA IC50s, monomer as reference. From the text: The binding was detected by HRP-labeled secondary antibody and TMB substrate, as described in Example 2.

B1: 17P04A (mIgG1) (antibody, V domains shown)
VH: EVQLVESGGGLVKPGGSLRLSCAASGFTLSSFSMNWVRQAPGKGLEWVSSISSRRTYIYYADSAKGRFTFSRDNAKNSLYLQMNSLRAEDSAVYYCARGGYIGSPNAYDIWGQGTMVTVSS
VL: QTVVTQEPSLTVSPGGTVTLTCASSTGAVTSDYYPNWFQQKPGQAPRALIYSASTKHSWTPARFSGSLLGGKAALTLSGVQPEDEADYYCLLYYGGAWVFGGGTKLTVL
notes: chimeric: fully human F(ab')2, mouse IgG1 CH2-CH3; also called 17P64A; 17P4A
As a reminder, the EC50 is the midpoint of the concentration-response curve. Take B1: the “ADCP (RFU)” value in assay [1] came out at 284000 RFU; in [11], 328000 RFU. Besides, the “relative ADCP” value in assay [2] was 0.79 relative to ADCP response of rfmAb-1. Further, the EC50 is 35.2 nM in assay [3]; greater than 50 nM in assay [4]; 35.2 nM in [5]; less than 0.1 nM in assay [6]; 203 nM in [7]; 0.045 nM in assay [8]. The EC50 stood at 0.045 nM in assay [9], 0.045 nM in assay [10], 203 nM in assay [12] and 35.2 nM in assay [13].

B2: 18P01A (mIgG1) (antibody, V domains shown)
VH: EVQLVESGGGLVQPGGSLKLSCAVSGFTFSGSAMHWVRQASGKGLEWVGRIRSKANSYATAYAASVKGRFTISRDDSKNTAFLQMNSLKTEDTAVYYCTSHAPNFDAFDIWGQGTMVTVSS
VL: QSVLTQPPSVSAAPGQKVTISCSGSSSNIGNHYVSWYQQLPGTAPKFFIYDNSKRPSGIPDRFSGSKSGTSATLGITGLQTGDEADYYCGTWDSSLSTYVFGTGTKVTVL
notes: chimeric: fully human F(ab')2 (human VH, VL, CH1, CL), mouse IgG1 CH2-CH3; also called Chimeric mouse 18P01A (mlgG1); Original 18P01A (mlgG1)
Regarding B2, the “ADCP (RFU)” value in assay [1] came out at 480000 RFU; in assay [11] it was 673000 RFU. In addition, in assay [2], the “relative ADCP” value is 1.36 relative to ADCP response of rfmAb-1. For the same molecule, the 50% effective concentration (EC50) in [3] was 67 nM; in assay [4], greater than 50 nM; in assay [5], 67 nM; in assay [6], less than 0.1 nM; in assay [7], 57.6 nM; in [8] it was 0.062 nM. The EC50 stood at 0.062 nM in assay [9], 0.062 nM in assay [10], 57.6 nM in assay [12] and 67 nM in [13].

B3: 20O07A (mIgG1) (antibody, V domains shown)
VH: EVQLVESGGGLVQPGGSLKLSCAVSGFTFSGSAIHWVRQASGKGLEWVGRIRSKVNSYATVYAASVKGRFTISRDDSKNTAFLQMNSLKTEDTAVYYCTSHAPIFDAFDIWGQGTMVTVSS
VL: QSVLTQPPSVSAAPGQKVTISCSGSSSNIGNHYVSWYQQLPGTAPKFLIYDNSKRPSGIPDRFSGSKSGTSATLGITGLQTGDEADYYCGTWDSSLSTYFFGTGTKVTVL
notes: chimeric: fully human F(ab')2, mouse IgG1 CH2-CH3; also called Chimeric mouse 20O07A (mlgG1)
Take B3: in assay [1], the “ADCP (RFU)” value was 334000 RFU. The “relative ADCP” value in assay [2] was 1.05 relative to ADCP response of rfmAb-1. Moreover, the EC50 in assay [4] is greater than 50 nM; in [5], 2.57 nM; in assay [6], less than 0.1 nM; in [8], 0.05 nM; in [9] it was 0.05 nM; in [12], 336 nM. It took 2.57 nM to reach a half-maximal effect in [13] (EC50). The “ratio of IC50 monomer to IC50 protofibril” value in [14] was greater than 300 fold.
